In the data set the target is T1, cPPR-Telo1 (synthetic construct).
T1 chain: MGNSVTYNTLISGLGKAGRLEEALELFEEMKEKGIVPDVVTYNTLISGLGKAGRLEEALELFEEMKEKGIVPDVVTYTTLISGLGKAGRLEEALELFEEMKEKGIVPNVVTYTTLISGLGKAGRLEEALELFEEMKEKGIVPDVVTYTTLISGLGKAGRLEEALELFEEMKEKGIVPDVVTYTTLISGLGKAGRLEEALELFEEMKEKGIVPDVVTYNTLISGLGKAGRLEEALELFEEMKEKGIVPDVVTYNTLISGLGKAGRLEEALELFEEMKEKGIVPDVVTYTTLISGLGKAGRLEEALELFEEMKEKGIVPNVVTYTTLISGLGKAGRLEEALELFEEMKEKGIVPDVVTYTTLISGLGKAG
Put plainly: structure; co-crystal structure 2.0 A, PDB 5ORQ; protein/DNA 1:2; 100 mM sodium acetate pH 4.6, 20 mM CaCl2, 22% MPD. The following applies: tags: GST and His tags (pETM30, E. coli). On the procedure: Crystals of cPPR-Telo1 were grown at 23° C. by the sitting drop vapour diffusion method by mixing 1 μl protein (5 mg/ml) with an equal volume of reservoir solution (100 mM sodium acetate pH 4.6, 20 mM calcium chloride, and 40% MPD). In addition, cPPR-Telo1 was incubated with target ssDNA oligonucleotide (TTAGGGTTAG) at a protein/DNA molar ratio of 1:2 for 30 min at 4° C. and crystallized in 100 mM sodium acetate pH 4.6, 20 mM calcium chloride, and 22% MPD. For both cPPR-Telo1 and cPPR-Telo1/ssDNA a single-wavelength anomalous dispersion dataset was collected at the K-edge of selenium at beam line ID30A-3 (ESRF, Grenoble, France). […] Acta Crystallogr D Biol Crystallogr 66, 213-21 (2010) was used as a starting model for manual building in COOT (Emsley, P. & Cowtan, K. Coot: model-building tools for molecular graphics. Acta Crystallogr D Biol Crystallogr 60, 2126-32 (2004) interspersed with refinement in Buster (version 2.10.3) (Smart, O. S. et al. Exploiting structure similarity in refinement: automated NCS and target-structure restraints in BUSTER. Acta Crystallogr D Biol Crystallogr 68, 368-80 (2012), which rendered a final model (Table 1) that had no Ramachandran outliers as assessed by MOLPROBITY (Lovell, S. C. et al. Structure validation by Calpha geometry: phi,psi and Cbeta deviation. […]

As for TTAGGGTTAG (ssDNA) [telomeric ssDNA target 10-mer], the binding result is “binds”.

The values are drawn from US20230287060, “PROTEINS AND THEIR USE FOR NUCLEOTIDE BINDING” (The University of Western Australia, published 2023).
